# Data taken from the Human Domainome abundance scans (Beltran et al. 2025).
# ± gives the uncertainty stated by the source.
# B1: 1-phosphatidylinositol 4,5-bisphosphate phosphodiesterase gamma-2, residues 772 to 827; numbered along this chain, P16885 (parent)
# chain: RTVKALYDYKAKRSDELSFCRGALIHNVSKEPGGWWKGDYGTRIQQYFPSNYVEDI
# Variants of: B1
# Test: abundance fitness (aPCA) (normalised: wild type 0, dead -1); higher = more abundant; growth selection in yeast, the domain comes from the species named
# Details: Homo sapiens
row,Variant,abundance fitness
1,RTVKALYDYKAKRSDELSFCRGALIHNVSKEPGGWWKGDYGTRIQQYFPSNYVEHI,-0.213 ± 0.1
2,RTVKALYDYKAKRSDELSFCRGALIHNVSKEPGGWWKGDYGTRIQQYFPSNYVEFI,-0.202 ± 0.09
3,RTVKALYDYKAKRSDELSFCRGALIHNVSKEPGGWWKGDYGTRIQQYFPSNYVECI,-0.139 ± 0.049
4,RTVKALYDYKAKRSDELSFCRGALIHNVSKEPGGWWKGDYGTRIQQYFPSNYVEII,-0.365 ± 0.29
5,RTVKALYDYKAKRSDELSFCRGALIHNVSKEPGGWWKGDYGTRIQQYFPSNYVEGI,-0.314 ± 0.074
6,RTVKALYDYKAKRSDELSFCRGALIHNVSKEPGGWWKGDYGTRIQQYFPSNYVEAI,-0.114 ± 0.069
7,RTVKALYDYKAKRSDELSFCRGALIHNVSKEPGGWWKGDYGTRIQQYFPSNYVEEI,0.065 ± 0.089
8,RTVKALYDYKAKRSDELSFCRGALIHNVSKEPGGWWKGDYGTRIQQYFPSCYVEDI,0.13 ± 0.089
9,RTVKALYDYKAKRSDELSFCRGALIHNVSKEPGGWWKGDYGTRIQQYFPSWYVEDI,-0.022 ± 0.054
10,RTVKALYDYKAKRSDELSFCRGALIHNVSKEPGGWWKGDYGTRIQQYFPSGYVEDI,-0.034 ± 0.044
11,RTVKALYDYKAKRSDELSFCRGALIHNVSKEPGGWWKGDYGTRIQQYFPSIYVEDI,-0.373 ± 0.25
12,RTVKALYDYKAKRSDELSFCRGALIHNVSKEPGGWWKGDYGTRIQQYFPSHYVEDI,0.208 ± 0.11
13,RTVKALYDYKAKRSDELSFCRGALIHNVSKEPGGWWKGDYGTRIQQYFPSTYVEDI,-0.025 ± 0.045
14,RTVKALYDYKAKRSDELSFCRGALIHNVSKEPGGWWKGDYGTRIQQYFPSKYVEDI,-0.076 ± 0.069
15,RTVKALYDYKAKRSDELSFCRGALIHNVSKEPGGWWKGDYGTRIQQYFPSSYVEDI,0.067 ± 0.059
16,RTVKALYDYKAKRSDELSFCRGALIHNVSKEPGGWWKGDYGTRIQQYFPSYYVEDI,-0.155 ± 0.12
17,RTVKALYDYKAKRSDELSFCRGALIHNVSKEPGGWWKGDYGTRIQQYFPSLYVEDI,-0.261 ± 0.057
18,RTVKALYDYKAKRSDELSFCRGALIHNVSKEPGGWWKGDYGTRIQQYFPSVYVEDI,-0.134 ± 0.076
19,RTVKALYDYKAKRSDELSFCRGALIHNVSKEPGGWWKGDYGTRIQQYFPSPYVEDI,-0.425 ± 0.12
20,RTVKALYDYKAKRSDELSFCRGALIHNVSKEPGGWWKGDYGTRIQQYFPSFYVEDI,-0.398 ± 0.33
21,RTVKALYDYKAKRSDELSFCRGALIHNVSKEPGGWWKGDYGTRIQQYFPSRYVEDI,-0.057 ± 0.048
22,RTVKALYDYKAKRSDELSFCRGALIHNVSKEPGGWWKGDYGTRIQQYFPSMYVEDI,-0.232 ± 0.092
23,RTVKALYDYKAKRSDELSFCRGALIHNVSKEPGGWWKGDYGTRIQQYFPSQYVEDI,-0.129 ± 0.087
24,RTVKALYDYKAKRSDELSFCRGALIHNVSKEPGGWWKGDYGTRIQQYFPSAYVEDI,-0.025 ± 0.058

row,Variant,abundance fitness
1,RTVKALYDYKAKRSDELSFCRGALIHNVSKEPGGWWKGDYGTRIQQYFPSEYVEDI,0.094 ± 0.065
2,RTVKALYDYKAKRSDELSFCRGALIHNVSKEPGGWWKGDYGTRIQQYWPSNYVEDI,-0.848 ± 0.16
3,RTVKALYDYKAKRSDELSFCRGALIHNVSKEPGGWWKGDYGTRIQQYVPSNYVEDI,-0.939 ± 0.19
4,RTVKALYDYKAKRSDELSFCRGALIHNVSKEPGGWWKGDYGTRIQQYTPSNYVEDI,-0.952 ± 0.12
5,RTVKALYDYKAKRSDELSFCRGALIHNVSKEPGGWWKGDYGTRIQQYRPSNYVEDI,-0.982 ± 0.21
6,RTVKALYDYKAKRSDELSFCRGALIHNVSKEPGGWWKGDYGTRIQQYSPSNYVEDI,-0.872 ± 0.11
7,RTVKALYDYKAKRSDELSFCRGALIHNVSKEPGGWWKGDYGTRIQQYPPSNYVEDI,-0.923 ± 0.093
8,RTVKALYDYKAKRSDELSFCRGALIHNVSKEPGGWWKGDYGTRIQQYFPSNTVEDI,0.01 ± 0.094
9,RTVKALYDYKAKRSDELSFCRGALIHNVSKEPGGWWKGDYGTRIQQYFPSNWVEDI,-0.327 ± 0.089
10,RTVKALYDYKAKRSDELSFCRGALIHNVSKEPGGWWKGDYGTRIQQYFPSNIVEDI,-0.077 ± 0.16
11,RTVKALYDYKAKRSDELSFCRGALIHNVSKEPGGWWKGDYGTRIQQYFPSNRVEDI,-0.295 ± 0.049
12,RTVKALYDYKAKRSDELSFCRGALIHNVSKEPGGWWKGDYGTRIQQYFPSNQVEDI,-0.281 ± 0.1
13,RTVKALYDYKAKRSDELSFCRGALIHNVSKEPGGWWKGDYGTRIQQYFPSNNVEDI,-0.605 ± 0.21
14,RTVKALYDYKAKRSDELSFCRGALIHNVSKEPGGWWKGDYGTRIQQYFPSNPVEDI,-0.892 ± 0.29
15,RTVKALYDYKAKRSDELSFCRGALIHNVSKEPGGWWKGDYGTRIQQYFPSNDVEDI,-0.98 ± 0.35
16,RTVKALYDYKAKRSDELSFCRGALIHNVSKEPGGWWKGDYGTRIQQYFPSNSVEDI,-0.304 ± 0.066
17,RTVKALYDYKAKRSDELSFCRGALIHNVSKEPGGWWKGDYGTRIQQYFPSNEVEDI,-0.943 ± 0.47
18,RTVKALYDYKAKRSDELSFCRGALIHNVSKEPGGWWKGDYGTRIQQYFPSNFVEDI,0.022 ± 0.081
19,RTVKALYDYKAKRSDELSFCRGALIHNVSKEPGGWWKGDYGTRIQQYFPSNMVEDI,0.045 ± 0.071
20,RTVKALYDYKAKRSDELSFCRGALIHNVSKEPGGWWKGDYGTRIQQYFPSNHVEDI,-0.222 ± 0.097
21,RTVKALYDYKAKRSDELSFCRGALIHNVSKEPGGWWKGDYGTRIQQYFPSNAVEDI,-0.092 ± 0.091
22,RTVKALYDYKAKRSDELSFCRGALIHNVSKEPGGWWKGDYGTRIQQYFPSNCVEDI,-0.086 ± 0.064
23,RTVKALYDYKAKRSDELSFCRGALIHNVSKEPGGWWKGDYGTRIQQYFPSNGVEDI,-0.787 ± 0.11
24,RTVKALYDYKAKRSDELSFCRGALIHNVSKEPGGWWKGDYGTRIQQYFPSNKVEDI,-0.138 ± 0.11

row,Variant,abundance fitness
1,RTVKALYDYKAKRSDELSFCRGALIHNVSKEPGGWWKGDYGTRIQQYFPSNLVEDI,0.026 ± 0.049
2,RTVKALYDYKAKRSDELSFCRGALIHNVSKEPGGWWKGDYGTRIQQYFPSNYREDI,-0.836 ± 0.12
3,RTVKALYDYKAKRSDELSFCRGALIHNVSKEPGGWWKGDYGTRIQQYFPSNYQEDI,-0.731 ± 0.35
4,RTVKALYDYKAKRSDELSFCRGALIHNVSKEPGGWWKGDYGTRIQQYFPSNYKEDI,-0.979 ± 0.15
5,RTVKALYDYKAKRSDELSFCRGALIHNVSKEPGGWWKGDYGTRIQQYFPSNYGEDI,-0.923 ± 0.073
6,RTVKALYDYKAKRSDELSFCRGALIHNVSKEPGGWWKGDYGTRIQQYFPSNYLEDI,-0.876 ± 0.12
7,RTVKALYDYKAKRSDELSFCRGALIHNVSKEPGGWWKGDYGTRIQQYFPSNYMEDI,-0.731 ± 0.22
8,RTVKALYDYKAKRSDELSFCRGALIHNVSKEPGGWWKGDYGTRIQQYFPSNYTEDI,-0.177 ± 0.091
9,RTVKALYDYKAKRSDELSFCRGALIHNVSKEPGGWWKGDYGTRIQQYFPSNYHEDI,-0.947 ± 0.34
10,RTVKALYDYKAKRSDELSFCRGALIHNVSKEPGGWWKGDYGTRIQQYFPSNYPEDI,-1.02 ± 0.32
11,RTVKALYDYKAKRSDELSFCRGALIHNVSKEPGGWWKGDYGTRIQQYFPSNYFEDI,-0.803 ± 0.37
12,RTVKALYDYKAKRSDELSFCRGALIHNVSKEPGGWWKGDYGTRIQQYFPSNYDEDI,-0.823 ± 0.25
13,RTVKALYDYKAKRSDELSFCRGALIHNVSKEPGGWWKGDYGTRIQQYFPSNYEEDI,-0.934 ± 0.28
14,RTVKALYDYKAKRSDELSFCRGALIHNVSKEPGGWWKGDYGTRIQQYFPSNYAEDI,-0.442 ± 0.093
15,RTVKALYDYKAKRSDELSFCRGALIHNVSKEPGGWWKGDYGTRIQQYFPANYVEDI,0.221 ± 0.095
16,RTVKALYDYKAKRSDELSFCRGALIHNVSKEPGGWWKGDYGTRIQQYFPCNYVEDI,-0.18 ± 0.1
17,RTVKALYDYKAKRSDELSFCRGALIHNVSKEPGGWWKGDYGTRIQQYFPQNYVEDI,-0.398 ± 0.15
18,RTVKALYDYKAKRSDELSFCRGALIHNVSKEPGGWWKGDYGTRIQQYFPRNYVEDI,0.035 ± 0.062
19,RTVKALYDYKAKRSDELSFCRGALIHNVSKEPGGWWKGDYGTRIQQYFPLNYVEDI,-0.737 ± 0.13
20,RTVKALYDYKAKRSDELSFCRGALIHNVSKEPGGWWKGDYGTRIQQYFPTNYVEDI,-0.352 ± 0.071
21,RTVKALYDYKAKRSDELSFCRGALIHNVSKEPGGWWKGDYGTRIQQYFPHNYVEDI,-0.163 ± 0.19
22,RTVKALYDYKAKRSDELSFCRGALIHNVSKEPGGWWKGDYGTRIQQYFPINYVEDI,-0.261 ± 0.096
23,RTVKALYDYKAKRSDELSFCRGALIHNVSKEPGGWWKGDYGTRIQQYFPDNYVEDI,-0.506 ± 0.12
24,RTVKALYDYKAKRSDELSFCRGALIHNVSKEPGGWWKGDYGTRIQQYFPPNYVEDI,-0.241 ± 0.081

row,Variant,abundance fitness
1,RTVKALYDYKAKRSDELSFCRGALIHNVSKEPGGWWKGDYGTRIQQYFPWNYVEDI,-0.412 ± 0.088
2,RTVKALYDYKAKRSDELSFCRGALIHNVSKEPGGWWKGDYGTRIQQYFPYNYVEDI,0.057 ± 0.098
3,RTVKALYDYKAKRSDELSFCRGALIHNVSKEPGGWWKGDYGTRIQQYFPGNYVEDI,-0.093 ± 0.058
4,RTVKALYDYKAKRSDELSFCRGALIHNVSKEPGGWWKGDYGTRIQQYFPKNYVEDI,0.103 ± 0.12
5,RTVKALYDYKAKRSDELSFCRGALIHNVSKEPGGWWKGDYGTRIQQYFPFNYVEDI,-0.181 ± 0.061
6,RTVKALYDYKAKRSDELSFCRGALIHNVSKEPGGWWKGDYGTRIQQYFPMNYVEDI,0.071 ± 0.1
7,RTVKALYDYKAKRSDELSFCRGALIHNVSKEPGGWWKGDYGTRIQQYFPSNYVGDI,-0.276 ± 0.055
8,RTVKALYDYKAKRSDELSFCRGALIHNVSKEPGGWWKGDYGTRIQQYFPSNYVNDI,-0.196 ± 0.17
9,RTVKALYDYKAKRSDELSFCRGALIHNVSKEPGGWWKGDYGTRIQQYFPSNYVLDI,-0.434 ± 0.05
10,RTVKALYDYKAKRSDELSFCRGALIHNVSKEPGGWWKGDYGTRIQQYFPSNYVWDI,-0.55 ± 0.055
11,RTVKALYDYKAKRSDELSFCRGALIHNVSKEPGGWWKGDYGTRIQQYFPSNYVMDI,-0.316 ± 0.17
12,RTVKALYDYKAKRSDELSFCRGALIHNVSKEPGGWWKGDYGTRIQQYFPSNYVHDI,-0.272 ± 0.082
13,RTVKALYDYKAKRSDELSFCRGALIHNVSKEPGGWWKGDYGTRIQQYFPSNYVADI,-0.119 ± 0.053
14,RTVKALYDYKAKRSDELSFCRGALIHNVSKEPGGWWKGDYGTRIQQYFPSNYVQDI,-0.392 ± 0.12
15,RTVKALYDYKAKRSDELSFCRGALIHNVSKEPGGWWKGDYGTRIQQYFPSNYVTDI,-0.256 ± 0.067
16,RTVKALYDYKAKRSDELSFCRGALIHNVSKEPGGWWKGDYGTRIQQYFPSNYVDDI,-0.291 ± 0.21
17,RTVKALYDYKAKRSDELSFCRGALIHNVSKEPGGWWKGDYGTRIQQYFPSNYVYDI,-0.38 ± 0.15
18,RTVKALYDYKAKRSDELSFCRGALIHNVSKEPGGWWKGDYGTRIQQYFPSNYVFDI,-0.04 ± 0.12
19,RTVKALYDYKAKRSDELSFCRGALIHNVSKEPGGWWKGDYGTRIQQYFPSNYVIDI,-0.353 ± 0.14
20,RTVKALYDYKAKRSDELSFCRGALIHNVSKEPGGWWKGDYGTRIQQYFPSNYVVDI,-0.244 ± 0.061
21,RTVKALYDYKAKRSDELSFCRGALIHNVSKEPGGWWKGDYGTRIQQYFPSNYVRDI,-0.125 ± 0.045
22,RTVKALYDYKAKRSDELSFCRGALIHNVSKEPGGWWKGDYGTRIQQYFPSNYVCDI,-0.197 ± 0.094
